The source of these data is paper PMC10110952.

As a reminder, the Kd is the constant that tells how readily two partners part at equilibrium. The term koff denotes a measure of how fast the partners let go of each other. A lower koff goes with a long-lived complex. In general, kon refers to the rate constant with which the complex forms. Lower therefore signals slower complex formation.

One test deals with hPg [K^708A] (human). Put plainly: SPR; each hPg variant amine-coupled to a CM-5 chip (~1200 RU); SK injected at 0.625-100 nM, multicycle kinetics, 90 s association, 120 s dissociation; HBS-EP+/50 μM NPGB, 25°C, Biacore X100; 1:1 Langmuir model. In general terms: SPR reads the build-up and loss of mass on a sensor chip optically.
Another test concerns the target hPg [D^518N] (human). The test is described as above.
A further test deals with hPg [D^413N] (human). Described as above.
Test [1] deals with wild-type (WT) Glu^1-hPg (human plasminogen) (human). The test is described as above.
A further test concerns the target hPg [D^219N] (human). The test is described as above.
In test [2] the target is hPg [D^139,413,518N] (human). Described as above.
For the next test, the target named is hPg [D^139N] (human). The description is as above.
Test [3] deals with PAM, plasminogen-binding group A Streptococcus (GAS) M-protein (S. pyogenes) (UniProt P49054). In words: SPR; PAM amine-coupled to a CM-5 chip (250 RU); hPg variants injected at 0.175-20 nM (up to 800 nM hPg [D219N]), multicycle kinetics, 180 s association, 300 s dissociation; HBS-EP+ (10 mM Na-Hepes/150 mM NaCl, 3 mM EDTA/0.05% polysorbate-20, pH 7.4), 25°C, Biacore X100; 1:1 Langmuir model.

For test [4] the target is unchanged.
Test [5] has as its target streptokinase (Streptococcus pyogenes) (UniProt P10520). In words: binding saturation. The following applies: cited from earlier work.
Sequence of UniProt P10520 (P10520 27-440): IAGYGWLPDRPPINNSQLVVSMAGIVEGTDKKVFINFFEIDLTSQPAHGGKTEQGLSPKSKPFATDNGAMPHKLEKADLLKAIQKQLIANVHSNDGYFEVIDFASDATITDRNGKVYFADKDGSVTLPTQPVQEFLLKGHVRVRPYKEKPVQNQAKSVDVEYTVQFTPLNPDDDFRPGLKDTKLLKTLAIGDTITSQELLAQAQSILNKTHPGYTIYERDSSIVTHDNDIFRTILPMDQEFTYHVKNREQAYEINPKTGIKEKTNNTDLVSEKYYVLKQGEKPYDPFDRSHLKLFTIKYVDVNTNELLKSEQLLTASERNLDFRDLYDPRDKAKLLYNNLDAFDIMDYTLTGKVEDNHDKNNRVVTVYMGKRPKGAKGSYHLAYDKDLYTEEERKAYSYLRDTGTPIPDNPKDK

Sequence of UniProt P49054 (P49054 30-384): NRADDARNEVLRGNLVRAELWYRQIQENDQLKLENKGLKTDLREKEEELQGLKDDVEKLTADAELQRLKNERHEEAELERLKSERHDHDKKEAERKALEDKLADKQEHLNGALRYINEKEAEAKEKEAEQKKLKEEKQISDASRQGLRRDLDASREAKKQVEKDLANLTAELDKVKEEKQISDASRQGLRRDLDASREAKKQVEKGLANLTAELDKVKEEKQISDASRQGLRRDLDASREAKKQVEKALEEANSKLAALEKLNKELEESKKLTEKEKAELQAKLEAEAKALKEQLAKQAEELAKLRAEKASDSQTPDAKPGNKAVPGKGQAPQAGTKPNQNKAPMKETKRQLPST

Take streptokinase (SK) (natural protein): the Kd with hPg [K^708A] (human) was found to be 0.21 nM; with hPg [D^518N] (human), 0.27 nM; with hPg [D^413N] (human) it was 0.26 nM; in test [1] it was 0.29 nM; in the test with hPg [D^219N] (human), 0.3 nM; in [2], 2.1 nM. In the test with hPg [D^139N] (human), this substance returned a Kd of 0.28 nM. Moreover, the off-rate constant (koff) came out at 0.000282 s⁻¹ with hPg [K^708A] (human); 0.00034 s⁻¹ with hPg [D^518N] (human); 0.000302 s⁻¹ with hPg [D^413N] (human); 0.000405 s⁻¹ in test [1]; 0.000466 s⁻¹ with hPg [D^219N] (human); 0.000449 s⁻¹ in test [2]. The koff in the test with hPg [D^139N] (human) was determined as 0.000302 s⁻¹. Also, the kon with hPg [K^708A] (human) stood at 1.36e+06 M⁻¹ s⁻¹; with hPg [D^518N] (human) it was 1.29e+06 M⁻¹ s⁻¹; with hPg [D^413N] (human) it was 1.22e+06 M⁻¹ s⁻¹; in test [1], 1.39e+06 M⁻¹ s⁻¹; with hPg [D^219N] (human), 1.55e+06 M⁻¹ s⁻¹; in [2], 206000 M⁻¹ s⁻¹. In the test with hPg [D^139N] (human), the kon was 1.13e+06 M⁻¹ s⁻¹.

In test [3], hPg [D^139,413,518N] (natural protein) showed a Kd of 0.7 nM, a dissociation rate constant (koff) of 0.0017 s⁻¹ and an on-rate (kon) of 2.51e+06 M⁻¹ s⁻¹.

In the case of hPg [D^413N] (natural protein), in test [3], the Kd worked out at 0.7 nM, the koff was determined as 0.00094 s⁻¹ and the on-rate constant (kon) was found to be 1.34e+06 M⁻¹ s⁻¹.

Consider “wild-type (WT) Glu^1-hPg (human plasminogen) (natural protein)”, for which, in test [3], the Kd was 5.4 nM, the koff stood at 0.0013 s⁻¹ and the kon amounted to 240000 M⁻¹ s⁻¹. In addition, in test [4], the rate of SK-mediated activation of hPg to hPm (S2251 hydrolysis), 250 nM PAM against 0 nM PAM amounted to 4 fold.

Take hPg [D^518N] (natural protein): in test [3], the Kd worked out at 6.7 nM, the off-rate (koff) was determined as 0.0024 s⁻¹ and the kon came to 360000 M⁻¹ s⁻¹.

In test [3], hPg [D^139N] (natural protein) had a Kd of 4 nM, an off-rate (koff) of 0.0016 s⁻¹ and an on-rate constant (kon) of 410000 M⁻¹ s⁻¹. This substance came in with a rate of SK-mediated activation of hPg to hPm (S2251 hydrolysis), 250 nM PAM against 0 nM PAM in [4] of 4 fold.

In test [3], hPg [K^708A] (natural protein) had a Kd of 1.2 nM, a koff of 0.0012 s⁻¹ and an association rate constant (kon) of 970000 M⁻¹ s⁻¹.

“mini-plasminogen mini-hPg (lacking K1-K4) (from UniProt P00747)”: the dissociation constant (Kd) in test [5] was 0.5 nM.

In the case of Glu1-plasminogen (from UniProt P00747), the Kd in [5] is 0.5 nM.
